Assay results taken from paper PMC539286.

Target: HTLV receptor (Glut1, the ubiquitous vertebrate glucose transporter) on human cells (human (endogenous in 293T)) (UniProt P11166)
Chain of UniProt P11166 (P11166 whole entry): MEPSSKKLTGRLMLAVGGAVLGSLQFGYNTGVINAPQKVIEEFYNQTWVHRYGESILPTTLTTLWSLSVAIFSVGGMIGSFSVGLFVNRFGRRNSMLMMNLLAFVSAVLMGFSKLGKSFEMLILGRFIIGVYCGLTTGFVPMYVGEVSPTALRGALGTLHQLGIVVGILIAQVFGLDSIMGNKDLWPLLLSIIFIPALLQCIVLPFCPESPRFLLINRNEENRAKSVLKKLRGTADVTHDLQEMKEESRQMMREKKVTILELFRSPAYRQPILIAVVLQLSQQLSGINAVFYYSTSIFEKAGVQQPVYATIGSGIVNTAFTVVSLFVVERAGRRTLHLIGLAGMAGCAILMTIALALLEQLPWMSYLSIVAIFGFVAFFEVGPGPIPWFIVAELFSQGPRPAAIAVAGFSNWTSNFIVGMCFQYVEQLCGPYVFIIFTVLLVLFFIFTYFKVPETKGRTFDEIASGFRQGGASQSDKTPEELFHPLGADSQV

Substance: H1(Y114A)SU, H1_(215)SU subdomain with Tyr114 mutated to Ala (from UniProt P23064 21-215) (Fc fusion)
- HTLV Env-mediated cell fusion with target cells that express the mutant, percent of control fusion: 56 % of control
- MLV(HTLV) pseudotype infection of target cells that express the mutant, percent of control infection: 46 % of control
